To fix the notation:
B1: POU domain, class 4, transcription factor 3, residues 185 to 256; numbered along this chain, Q15319 (parent)
chain: RELEAFAERFKQRRIKLGVTQADVGAALANLKIPGVGSLSQSTICRFESLTLSHNNMIALKPVLQAWLEEAE
B2: Cullin-9, residues 2234 to 2275; numbered along this chain, Q8IWT3 (parent)
chain: KRCPSCQAPIEKNEGCLHMTCAKCNHGFCWRCLKSWKPNHKD

± gives the uncertainty stated by the source.

The variants in the first data set derive from B1. In words: abundance fitness (aPCA) (normalised: wild type 0, dead -1); higher = more abundant; growth selection in yeast, the domain comes from the species named. As to conditions: Homo sapiens.
Regarding I58P, the abundance fitness was -1.06 ± 0.26.

Take W67N: the abundance fitness is -0.491 ± 0.16.

On to W67S, for which the abundance fitness is -0.684 ± 0.14.

Turning to A22G, the abundance fitness was -0.055 ± 0.036.

Turning to A22R, the abundance fitness was -0.087 ± 0.037.

Regarding A22H, the abundance fitness was -0.107 ± 0.073.

Consider E8D, for which the abundance fitness was -0.05 ± 0.14.

In the case of E8M, the abundance fitness was -0.003 ± 0.059.

On to E8Y, for which the abundance fitness is -0.236 ± 0.13.

On to V63W, for which the abundance fitness was -0.022 ± 0.094.

Regarding V63I, the abundance fitness was 0.055 ± 0.051.

For V63G, the abundance fitness is -0.545 ± 0.06.

As to V63Q, the abundance fitness was -0.34 ± 0.094.

Take S49M: the abundance fitness is -0.117 ± 0.11.

S49G: the abundance fitness is -0.138 ± 0.057.

Regarding S49D, the abundance fitness came out at 0.067 ± 0.071.

As for R46G, the abundance fitness worked out at 0.125 ± 0.097.

Regarding R46S, the abundance fitness worked out at 0.024 ± 0.06.

For the variant G25A, the abundance fitness stood at 0.117 ± 0.11.

Turning to G25H, the abundance fitness is -0.269 ± 0.21.

As for L3M, the abundance fitness is -0.261 ± 0.093.

Consider L3I, for which the abundance fitness is 0.065 ± 0.07.

In the case of V19F, the abundance fitness stood at 0.03 ± 0.048.

Take V19H: the abundance fitness was determined as 0.007 ± 0.054.

Consider R13Y, for which the abundance fitness is -0.133 ± 0.074.

With R13P, the abundance fitness was -0.938 ± 0.28.

Turning to R13A, the abundance fitness was -0.01 ± 0.055.

As for Q12I, the abundance fitness was -0.172 ± 0.089.

Regarding L60G, the abundance fitness was -0.638 ± 0.5.

Turning to K11M, the abundance fitness was -0.125 ± 0.049.

On to K11E, for which the abundance fitness is -0.945 ± 0.3.

Consider G37D, for which the abundance fitness was -0.093 ± 0.15.

Turning to G37R, the abundance fitness was -0.063 ± 0.054.

For G37M, the abundance fitness was -0.153 ± 0.18.

For G37S, the abundance fitness is -0.001 ± 0.082.

Q21P: the abundance fitness was -0.238 ± 0.38.

Consider E70Y, for which the abundance fitness was -0.245 ± 0.06.

For E70Q, the abundance fitness is -0.084 ± 0.055.

Turning to T43C, the abundance fitness is -0.333 ± 0.23.

Consider T43I, for which the abundance fitness was -0.089 ± 0.41.

Regarding A27C, the abundance fitness was -0.266 ± 0.076.

As for A27M, the abundance fitness is -0.176 ± 0.11.

In the case of L52M, the abundance fitness was -0.55 ± 0.47.

As to G18Y, the abundance fitness is -0.928 ± 0.29.

R9C: the abundance fitness is -0.141 ± 0.1.

In the case of E69P, the abundance fitness is -0.672 ± 0.058.

As for E69D, the abundance fitness was -0.039 ± 0.078.

Take L64M: the abundance fitness is -0.17 ± 0.034.

In the case of L64I, the abundance fitness is -0.402 ± 0.098.

As to T20N, the abundance fitness is -0.318 ± 0.089.

On to V24C, for which the abundance fitness was -0.223 ± 0.046.

In the case of S53H, the abundance fitness was -0.174 ± 0.12.

Consider P62C, for which the abundance fitness was -0.565 ± 0.053.

As for P62T, the abundance fitness is -0.221 ± 0.042.

On to P62I, for which the abundance fitness was -0.753 ± 0.1.

Regarding P62Q, the abundance fitness was -0.393 ± 0.049.

As for K16M, the abundance fitness came to 0.008 ± 0.039.

Turning to P34M, the abundance fitness was -0.141 ± 0.093.

Turning to L28C, the abundance fitness is -0.443 ± 0.21.

As for L28M, the abundance fitness was -0.095 ± 0.15.

For the variant L39A, the abundance fitness is -0.053 ± 0.15.

As for I15W, the abundance fitness was -0.527 ± 0.32.

I15A: the abundance fitness is -0.093 ± 0.15.

Consider I15H, for which the abundance fitness was -0.37 ± 0.19.

For L50P, the abundance fitness was -1.02 ± 0.14.

As to K32A, the abundance fitness is -0.056 ± 0.038.

Turning to C45K, the abundance fitness was 0.109 ± 0.17.

On to I33Y, for which the abundance fitness is -0.105 ± 0.12.

Take L68Q: the abundance fitness was -0.497 ± 0.047.

Consider A29R, for which the abundance fitness was -0.114 ± 0.076.

As to A29G, the abundance fitness is -0.022 ± 0.077.

Take A29H: the abundance fitness is -0.083 ± 0.14.

Regarding A26I, the abundance fitness is -0.133 ± 0.068.

Turning to T51F, the abundance fitness was -0.578 ± 0.31.

As to T51M, the abundance fitness turned out to be 0.096 ± 0.17.

Take T51G: the abundance fitness was -0.174 ± 0.077.

On to E72M, for which the abundance fitness was -0.36 ± 0.038.

For S38A, the abundance fitness was -0.346 ± 0.23.

On to S38F, for which the abundance fitness is 0.057 ± 0.095.

In the case of S38Q, the abundance fitness was determined as 0.029 ± 0.03.

As for S38Y, the abundance fitness is -0.055 ± 0.051.

Regarding R1M, the abundance fitness was -0.08 ± 0.1.

For the variant F6S, the abundance fitness is -0.338 ± 0.3.

For F6C, the abundance fitness is -0.731 ± 0.25.

As to F6L, the abundance fitness was -0.221 ± 0.25.

For F10I, the abundance fitness was -0.813 ± 0.3.

As to V36G, the abundance fitness is -0.242 ± 0.2.

As to V36Y, the abundance fitness is -0.121 ± 0.19.

Take G35Y: the abundance fitness is -0.26 ± 0.074.

With A7D, the abundance fitness was -0.953 ± 0.22.

On to A7M, for which the abundance fitness is -0.784 ± 0.13.

Turning to A71I, the abundance fitness is -0.178 ± 0.037.

For R14D, the abundance fitness is -0.454 ± 0.16.

Regarding M57A, the abundance fitness was -0.173 ± 0.11.

For D23N, the abundance fitness is -0.112 ± 0.1.

For the variant L31Q, the abundance fitness is -0.202 ± 0.28.

The variants in a further data set derive from B2. The description is as above. As to conditions: Homo sapiens.
In the case of Q7S, the abundance fitness was -0.406 ± 0.17.

As for Q7V, the abundance fitness was -0.198 ± 0.11.

For I10H, the abundance fitness was -0.588 ± 0.18.

On to I10R, for which the abundance fitness was -0.534 ± 0.089.

For I10Q, the abundance fitness is -0.231 ± 0.12.

With I10T, the abundance fitness was -0.083 ± 0.1.

For the variant I10V, the abundance fitness is -0.138 ± 0.085.

Take I10D: the abundance fitness is -0.011 ± 0.09.

As for P38Q, the abundance fitness is -0.163 ± 0.13.

Turning to P38D, the abundance fitness is -0.553 ± 0.28.

As to P38C, the abundance fitness is -0.695 ± 0.19.

For W36H, the abundance fitness was -0.015 ± 0.47.

For W36N, the abundance fitness was -0.355 ± 0.34.

On to W36A, for which the abundance fitness was found to be 0.029 ± 0.078.

As for C32N, the abundance fitness is -0.472 ± 0.18.

C32R: the abundance fitness was -0.894 ± 0.098.

With C32G, the abundance fitness was -0.668 ± 0.081.

For C32E, the abundance fitness is -0.117 ± 0.094.

Regarding C32T, the abundance fitness was -0.485 ± 0.15.

C32D: the abundance fitness is -0.199 ± 0.11.

C32F: the abundance fitness was -0.744 ± 0.17.

As to C32S, the abundance fitness was -0.747 ± 0.1.

For the variant C32A, the abundance fitness was -0.632 ± 0.095.

For C32W, the abundance fitness was -0.744 ± 0.12.

As to K37L, the abundance fitness is -0.143 ± 0.096.

For the variant K37S, the abundance fitness was determined as 0.234 ± 0.099.

Turning to K37G, the abundance fitness came out at 0.125 ± 0.071.

As for K37Q, the abundance fitness was 0.121 ± 0.1.

In the case of K37C, the abundance fitness stood at 0.057 ± 0.11.

E14T: the abundance fitness was -0.12 ± 0.15.

Regarding E14G, the abundance fitness was -0.071 ± 0.087.

As to E14R, the abundance fitness was -0.369 ± 0.091.

On to E14W, for which the abundance fitness was -0.362 ± 0.14.

E14N: the abundance fitness is -0.219 ± 0.24.

Consider E14L, for which the abundance fitness was -0.411 ± 0.12.

E14F: the abundance fitness was -0.492 ± 0.2.

Consider E14M, for which the abundance fitness was found to be 0.121 ± 0.23.

On to K23L, for which the abundance fitness is -0.325 ± 0.092.

K23F: the abundance fitness worked out at 0.02 ± 0.22.

With K23H, the abundance fitness is -0.223 ± 0.19.

On to K23Q, for which the abundance fitness was -0.454 ± 0.14.

For K23A, the abundance fitness is -0.102 ± 0.085.

As to K23V, the abundance fitness is -0.293 ± 0.091.

For the variant K23T, the abundance fitness was -0.115 ± 0.1.

As to A22G, the abundance fitness is -0.254 ± 0.11.

As for A22M, the abundance fitness stood at 0.082 ± 0.16.

Consider A22P, for which the abundance fitness stood at 0.149 ± 0.13.

As for A22D, the abundance fitness is 0.229 ± 0.19.

Regarding E11Y, the abundance fitness amounted to 0.319 ± 0.45.

As to E11K, the abundance fitness is -0.27 ± 0.12.

On to E11M, for which the abundance fitness is -0.383 ± 0.13.

Turning to E11Q, the abundance fitness is -0.448 ± 0.33.

For E11L, the abundance fitness was -0.318 ± 0.095.

For E11S, the abundance fitness is -0.41 ± 0.12.

As for E11G, the abundance fitness was -0.34 ± 0.079.

On to H26D, for which the abundance fitness was found to be 0.063 ± 0.11.

Consider H26F, for which the abundance fitness stood at 0.146 ± 0.2.

With H26W, the abundance fitness was -0.541 ± 0.14.

Turning to H26I, the abundance fitness was -0.367 ± 0.2.

On to H26C, for which the abundance fitness was -0.628 ± 0.15.

As to H26V, the abundance fitness is -0.266 ± 0.081.

In the case of K1C, the abundance fitness was -1.12 ± 0.26.

With K1E, the abundance fitness was -0.586 ± 0.11.

Consider K1L, for which the abundance fitness was -0.493 ± 0.15.

Turning to K1R, the abundance fitness is -0.948 ± 0.12.

In the case of K1T, the abundance fitness was -0.377 ± 0.19.

Turning to S35F, the abundance fitness came out at 0.187 ± 0.17.

S35P: the abundance fitness was found to be 0.446 ± 0.14.

In the case of S5W, the abundance fitness was 0.313 ± 0.085.

For the variant S5I, the abundance fitness is -0.142 ± 0.23.

With S5M, the abundance fitness came out at 0.395 ± 0.11.

The values above are taken from the Human Domainome abundance scans (Beltran et al. 2025).
